In this experiment the target is human CD11b/CD18 (alphaM beta2 integrin) on transfected CHO cells (human, UniProt P11215 17-1152; P05107 23-769). The experiment can be described thus: FACS competition on CHO-CD11b cells, competitor CyaA-biotin.

B1: CyaA 373-1706 (hemolytic moiety) (other)
chain: MGCGNSKFSPDVLETVPASPGLRRPSLGAVERQDSGYDSLDGVGSRSFSLGEVSDMAAVEAAELEMTRQVLHAGARQDDAEPGVSGASAHWGQRALQGAQAVAAAQRLVHAIALMTQFGRAGSTNTPQEAASLSAAVFGLGEASSAVAETVSGFFRGSSRWAGGFGVAGGAMALGGGIAAAVGAGMSLTDDAPAGQKAAAGAEIALQLTGGTVELASSIALALAAARGVTSGLQVAGASAGAAAGALAAALSPMEIYGLVQQSHYADQLDKLAQESSAYGYEGDALLAQLYRDKTAAEGAVAGVSAVLSTVGAAVSIAAAASVVGAPVAVVTSLLTGALNGILRGVQQPIIEKLANDYARKIDELGGPQAYFEKNLQARHEQLANSDGLRKMLADLQAGWNASSVIGVQTTEISKSALELAAITGNADNLKSVDVFVDRFVQGERVAGQPVVLDVAAGGIDIASRKGERPALTFITPLAAPGEEQRRRTKTGKSEFTTFVEIVGKQDRWRIRDGAADTTIDLAKVVSQLVDANGVLKHSIKLDVIGGDGDDVVLANASRIHYDGGAGTNTVSYAALGRQDSITVSADGERFNVRKQLNNANVYREGVATQTTAYGKRTENVQYRHVELARVGQVVEVDTLEHVQHIIGGAGNDSITGNAHDNFLAGGSGDDRLDGGAGNDTLVGGEGQNTVIGGAGDDVFLQDLGVWSNQLDGGAGVDTVKYNVHQPSEERLERMGDTGIHADLQKGTVEKWPALNLFSVDHVKNIENLHGSRLNDRIAGDDQDNELWGHDGNDTIRGRGGDDILRGGLGLDTLYGEDGNDIFLQDDETVSDDIDGGAGLDTVDYSAMIHPGRIVAPHEYGFGIEADLSREWVRKASALGVDYYDNVRNVENVIGTSMKDVLIGDAQANTLMGQGGDDTVRGGDGDDLLFGGDGNDMLYGDAGNDTLYGGLGDDTLEGGAGNDWFGQTQAREHDVLRGGDGVDTVDYSQTGAHAGIAAGRIGLGILADLGAGRVDKLGEAGSSAYDTVSGIENVVGTELADRITGDAQANVLRGAGGADVLAGGEGDDVLLGGDGDDQLSGDAGRDRLYGEAGDDWFFQDAANAGNLLDGGDGRDTVDFSGPGRGLDAGAKGVFLSLGKGFASLMDEPETSNVLRNIENAVGSARDDVLIGDAGANVLNGLAGNDVLSGGAGDDVLLGDEGSDLLSGDAGNDDLFGGQGDDTYLFGVGYGHDTIYESGGGHDTIRINAGADQLWFARQGNDLEIRILGTDDALTVHDWYRDADHRVEIIHAANQAVDQAGIEKLVEAMAQYPDPGAAAAAPPAARVPDTLMQSLAVNWR
Consider B1, for which the binding result is “binds”.
